Drawing on paper PMC6783867, “Synthesis and Characterization of Cry2Ab–AVM Bioconjugate: Enhanced Affinity to Binding Proteins and Insecticidal Activity” (Toxins, 2019), this text covers Kd for 1 molecule.

The target of this test is T1, 10th and 11th cadherin repeat domains of the Plutella xylostella cadherin (PxCR10–11), GST-tagged (Plutella xylostella).
T1 construct: Plutella xylostella cadherin, 10th and 11th CR domains, residues 1258–1602 aa; also called truncated recombinant P. xylostella cadherin; source: Escherichia coli expression system, purified (GST-Sefinose prepacked gravity column)
In words: BLI; Octet Red 96; GST-tagged PxCR10–11 loaded onto anti-GST biosensors; toxin 38.5 to 576.9 nM in solution; 400 s association, 400 s dissociation; 10 mM GSH, 50 mM Tris, pH 8.0; 1:1 binding model. The following applies: both partners purified. For orientation: BLI is a label-free optical method that tracks binding on a fibre tip over time.

B1: Bacillus thuringiensis insecticidal protein (Bt toxin) Cry2Ab30 (natural protein)
chain: MNSVLNSGRTTICDAYNVAAHDPFSFQHKSLDTVQKEWTEWKKNNHSLYLDPIVGTVASFLLKKVGSLVGKRILSELRNLIFPSGSTNLMQDILRETEKFLNQRLNTDTLARVNAELTGLQANVEEFNRQVDNFLNPNRNAVPLSITSSVNTMQQLFLNRLPQFQMQGYQLLLLPLFAQAANLHLSFIRDVILNADEWGISAATLRTYRDYLKNYTRDYSNYCINTYQSAFKGLNTRLHDMLEFRTYMFLNVFEYVSIWSLFKYQSLLVSSGANLYASGSGPQQTQSFTSQDWPFLYSLFQVNSNYVLNGFSGARLSNTFPNIVGLPGSTTTHALLAARVNYSGGISSGDIGASPFNQNFNCSTFLPPLLTPFVRSWLDSGSDREGVATVTNWQTESFETTLGLRSGAFTARGNSNYFPDYFIRNISGVPLVVRNEDLRRPLHYNEIRNIASPSGTPGGARAYMVSVHNRKNNIHAVHENGSMIHLAPNDYTGFTISPIHATQVNNQTRTFISEKFGNQGDSLRFEQNNTTARYTLRGNGNSYNLYLRVSSIGNSTIRVTINGRVYTATNVNTTTNNDGVNDNGARFSDINIGNVVASSNSDVPLDINVTLNSGTQFDLMNIMLVPTNISPLY
Turning to B1, binding was characterised by a dissociation constant (Kd) of 28.7 nM.

One may read the Kd as the constant that tells how readily two partners part at equilibrium.
